Results as given in PMC3074137.
Each block holds one molecule with its values, some of them ahead of it.

Experiments:
His6-eIF4G-MC (human) = His6-eIF4G-MC (human) (UniProt Q04637); assay: SPR
[1] = biological target: eIF4G-MC (83.5 kDa fragment of human eIF4GI, residues 712-1451) (human) (UniProt Q04637); assay: ITC
eIF4G-MC (F978A) (human) = eIF4G-MC (F978A) (human) (UniProt Q04637); assay: ITC
[2] = biological target: eIF4G-MC (83.5 kDa fragment of human eIF4GI, residues 712-1451) (human) (UniProt Q04637); assay: SEC
[3] = biological target: eIF4G-MC (83.5 kDa fragment of human eIF4GI, residues 712-1451) (human) (UniProt Q04637); assay: SAXS
eIF4A (human) = eIF4A (human) (UniProt P60842); assay: ITC
eIF4A;eIF4B = eIF4A;eIF4B (human;human, UniProt P60842;P23588 1-406;1-611, |); assay: pull-down
eIF4A;eIF4BΔC = eIF4A;eIF4BΔC (human;human, UniProt P60842;P23588 1-406;1-431, |); assay: pull-down
eIF4B = eIF4B (human, UniProt P23588 1-611); assay: pull-down
eIF4B, sequence (P23588 whole entry): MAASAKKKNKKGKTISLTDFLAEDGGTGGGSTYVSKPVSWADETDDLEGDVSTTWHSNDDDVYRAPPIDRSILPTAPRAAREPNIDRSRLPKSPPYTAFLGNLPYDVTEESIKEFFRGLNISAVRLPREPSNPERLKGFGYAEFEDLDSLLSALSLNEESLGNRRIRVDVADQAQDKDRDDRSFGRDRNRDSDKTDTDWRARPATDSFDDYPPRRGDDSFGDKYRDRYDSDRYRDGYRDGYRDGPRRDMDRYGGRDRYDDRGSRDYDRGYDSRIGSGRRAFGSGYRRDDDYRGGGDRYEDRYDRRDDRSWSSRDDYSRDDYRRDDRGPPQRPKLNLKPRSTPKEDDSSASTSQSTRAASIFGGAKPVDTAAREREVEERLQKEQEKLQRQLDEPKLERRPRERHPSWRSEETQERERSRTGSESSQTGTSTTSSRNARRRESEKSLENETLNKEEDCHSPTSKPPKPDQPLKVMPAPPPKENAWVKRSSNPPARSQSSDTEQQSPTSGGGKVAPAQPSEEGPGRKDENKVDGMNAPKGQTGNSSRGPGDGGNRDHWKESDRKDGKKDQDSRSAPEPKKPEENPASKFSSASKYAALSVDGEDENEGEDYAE

eIF4G-MC (83.5 kDa fragment of human eIF4GI, residues 712-1451) (human), sequence (Q04637 711-1450): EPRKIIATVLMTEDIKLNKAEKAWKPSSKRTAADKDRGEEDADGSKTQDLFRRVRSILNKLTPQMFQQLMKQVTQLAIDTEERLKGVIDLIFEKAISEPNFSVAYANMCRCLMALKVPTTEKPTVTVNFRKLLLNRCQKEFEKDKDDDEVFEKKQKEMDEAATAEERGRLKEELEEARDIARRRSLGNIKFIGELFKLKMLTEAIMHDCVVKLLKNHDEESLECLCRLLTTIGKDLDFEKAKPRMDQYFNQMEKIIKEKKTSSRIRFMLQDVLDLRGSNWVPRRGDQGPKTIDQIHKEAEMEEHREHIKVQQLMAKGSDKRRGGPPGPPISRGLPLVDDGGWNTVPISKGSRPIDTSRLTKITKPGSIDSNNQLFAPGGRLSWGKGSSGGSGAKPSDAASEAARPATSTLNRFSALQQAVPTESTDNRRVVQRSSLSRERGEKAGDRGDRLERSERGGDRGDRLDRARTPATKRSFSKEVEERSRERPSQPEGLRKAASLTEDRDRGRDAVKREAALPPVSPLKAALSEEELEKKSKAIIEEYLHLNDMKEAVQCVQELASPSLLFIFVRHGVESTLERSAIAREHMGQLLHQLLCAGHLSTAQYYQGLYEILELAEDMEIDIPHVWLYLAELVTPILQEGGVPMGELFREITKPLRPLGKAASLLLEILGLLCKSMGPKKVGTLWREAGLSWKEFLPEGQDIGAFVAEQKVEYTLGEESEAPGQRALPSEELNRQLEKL
eIF4G-MC (F978A) (human), sequence (Q04637 711-1450 F977A): as the sequence (Q04637 711-1450) above, with F267A counted along it
eIF4G-MC (83.5 kDa fragment of human eIF4GI, residues 712-1451), sequence (Q04637 711-1450): as the sequence (Q04637 711-1450) above
His6-eIF4G-MC (human), sequence (Q04637 711-1450): as above

KD high-affinity site (His6-eIF4G-MC (human)): 67 nM | KD high-affinity site [1]: 50 nM | KD low-affinity site [1]: 775 nM | Kd (eIF4G-MC (F978A) (human)): 417 nM | stoichiometry N (eIF4A per eIF4G-MC (F978A)) (eIF4G-MC (F978A) (human)): 1 | stoichiometry N (eIF4A per eIF4G-MC) [2]: 1 | stoichiometry N (eIF4A per eIF4G-MC) [3]: 1
Molecule: eIF4A (from UniProt P60842 1-406) (enzyme)

KD high-affinity site (eIF4A (human)): 42 nM | KD low-affinity site (eIF4A (human)): 1600 nM
Molecule: eIF4G-MC (83.5 kDa fragment of human eIF4GI, residues 712-1451) (from UniProt Q04637-8 712-1451) (domain or fragment)

Molecule: UUUUUUUUUUUUUUUUUUUUUUUUUUUUUU (ssRNA) [pU30-biotin]
binding result (eIF4A;eIF4B): binds | binding result (eIF4A;eIF4BΔC): binds | binding result (eIF4B): binds
